Values quoted from earlier work, collected in paper PMC8555654.

Biological target: PlexA2 (Mus musculus) (UniProt P70207)
Sequence (P70207 35-1237): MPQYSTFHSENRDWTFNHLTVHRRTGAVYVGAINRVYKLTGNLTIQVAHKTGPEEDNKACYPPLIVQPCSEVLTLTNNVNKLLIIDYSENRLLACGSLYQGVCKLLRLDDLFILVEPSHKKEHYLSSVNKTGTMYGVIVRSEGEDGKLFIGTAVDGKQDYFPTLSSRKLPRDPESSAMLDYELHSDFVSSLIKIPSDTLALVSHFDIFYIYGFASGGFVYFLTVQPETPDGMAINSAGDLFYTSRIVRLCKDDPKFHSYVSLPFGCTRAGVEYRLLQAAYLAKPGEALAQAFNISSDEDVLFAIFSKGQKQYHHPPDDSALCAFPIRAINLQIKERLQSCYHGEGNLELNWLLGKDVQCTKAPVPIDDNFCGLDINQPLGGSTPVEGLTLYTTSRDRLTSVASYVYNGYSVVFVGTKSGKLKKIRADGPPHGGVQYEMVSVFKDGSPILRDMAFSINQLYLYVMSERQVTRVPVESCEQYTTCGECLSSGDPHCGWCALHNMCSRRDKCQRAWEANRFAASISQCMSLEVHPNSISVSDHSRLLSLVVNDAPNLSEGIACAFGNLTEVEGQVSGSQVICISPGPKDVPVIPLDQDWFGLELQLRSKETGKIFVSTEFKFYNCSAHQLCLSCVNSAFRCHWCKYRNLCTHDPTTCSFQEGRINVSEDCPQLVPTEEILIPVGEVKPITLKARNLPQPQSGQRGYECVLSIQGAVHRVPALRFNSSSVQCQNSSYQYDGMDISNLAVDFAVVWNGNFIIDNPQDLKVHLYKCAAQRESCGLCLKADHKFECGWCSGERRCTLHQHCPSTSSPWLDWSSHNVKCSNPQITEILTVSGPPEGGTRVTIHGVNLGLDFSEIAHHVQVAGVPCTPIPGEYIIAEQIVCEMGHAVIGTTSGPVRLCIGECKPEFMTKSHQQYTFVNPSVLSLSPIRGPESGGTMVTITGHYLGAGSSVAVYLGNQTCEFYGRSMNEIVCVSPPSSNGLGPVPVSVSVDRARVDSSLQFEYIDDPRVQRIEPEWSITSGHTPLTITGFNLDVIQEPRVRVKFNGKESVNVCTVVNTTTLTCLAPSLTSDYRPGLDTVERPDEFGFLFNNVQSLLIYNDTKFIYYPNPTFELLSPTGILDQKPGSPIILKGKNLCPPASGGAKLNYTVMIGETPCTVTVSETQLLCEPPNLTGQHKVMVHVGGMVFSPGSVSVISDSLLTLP

Kd: 66 µM
Substance: Npn1 (from UniProt P97333)
